Source: article PMC9482650, “Quantitative fragmentomics allow affinity mapping of interactomes” (Nature Communications, 2022)
Substitutions are numbered along the chain they refer to.

Experiments:
Assay in all cases: holdup assay
Parameters in all cases: key: below the threshold = too weak to quantify, mostly under pKd 3.1 to 4
APBA1_1, Q02410 = biological target: T1, APBA1_1, Q02410
T1 sequence (Q02410 651-752, limits assumed, looked up): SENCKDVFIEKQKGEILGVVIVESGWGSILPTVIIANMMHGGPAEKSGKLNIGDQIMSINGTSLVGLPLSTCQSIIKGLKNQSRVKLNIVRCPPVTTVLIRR

GRID2IP_1, A4D2P6 = biological target: GRID2IP_1, A4D2P6
Chain of GRID2IP_1, A4D2P6 (A4D2P6 1-87): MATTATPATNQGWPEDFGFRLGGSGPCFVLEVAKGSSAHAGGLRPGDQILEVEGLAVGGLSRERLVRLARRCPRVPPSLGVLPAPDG

FRMPD3, Q5JV73 = biological target: FRMPD3, Q5JV73
Chain of FRMPD3, Q5JV73 (Q5JV73 12-100): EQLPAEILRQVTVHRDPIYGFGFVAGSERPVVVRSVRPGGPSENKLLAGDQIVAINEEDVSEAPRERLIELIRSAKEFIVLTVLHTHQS

GORASP2, Q9H8Y8 = biological target: GORASP2, Q9H8Y8
LIN7C, Q9NUP9 = biological target: T2, LIN7C, Q9NUP9
T2 sequence (Q9NUP9 88-185, limits assumed, looked up): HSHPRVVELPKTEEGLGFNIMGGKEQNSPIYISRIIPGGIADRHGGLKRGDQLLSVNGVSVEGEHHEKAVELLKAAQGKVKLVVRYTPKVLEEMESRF

MAGI2_3, Q86UL8 = biological target: MAGI2_3, Q86UL8
Chain of MAGI2_3, Q86UL8 (Q86UL8 600-682): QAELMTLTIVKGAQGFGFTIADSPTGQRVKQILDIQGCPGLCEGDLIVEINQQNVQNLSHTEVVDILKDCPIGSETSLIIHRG

DLG3_2, Q92796 = biological target: T3, DLG3_2, Q92796
T3 sequence (Q92796 221-321, limits assumed, looked up): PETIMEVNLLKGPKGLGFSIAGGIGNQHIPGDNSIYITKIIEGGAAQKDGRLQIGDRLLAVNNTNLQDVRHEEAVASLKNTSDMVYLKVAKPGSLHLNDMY

HTRA3, P83110 = biological target: T4, HTRA3, P83110
T4 sequence (P83110 354-453, limits assumed, looked up): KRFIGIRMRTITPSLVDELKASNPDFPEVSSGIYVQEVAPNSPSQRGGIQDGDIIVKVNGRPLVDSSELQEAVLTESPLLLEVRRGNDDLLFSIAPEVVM

MAGI2_4, Q86UL8 = biological target: MAGI2_4, Q86UL8
Chain of MAGI2_4, Q86UL8 (Q86UL8 772-865): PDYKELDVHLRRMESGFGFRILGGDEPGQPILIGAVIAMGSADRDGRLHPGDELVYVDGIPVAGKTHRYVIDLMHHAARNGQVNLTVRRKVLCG

CASK, O14936 = biological target: CASK, O14936
Chain of CASK, O14936 (O14936 487-570): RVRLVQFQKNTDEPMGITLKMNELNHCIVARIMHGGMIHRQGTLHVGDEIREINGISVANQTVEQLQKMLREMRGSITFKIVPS

GRIP2_5, Q9C0E4 = biological target: GRIP2_5, Q9C0E4
Chain of GRIP2_5, Q9C0E4 (Q9C0E4 544-642): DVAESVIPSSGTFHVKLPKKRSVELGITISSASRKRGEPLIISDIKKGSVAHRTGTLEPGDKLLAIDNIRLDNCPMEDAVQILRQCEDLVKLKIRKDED

Inadl_2, Q8NI35 = biological target: Inadl_2, Q8NI35
Chain of Inadl_2, Q8NI35 (Q8NI35 238-335): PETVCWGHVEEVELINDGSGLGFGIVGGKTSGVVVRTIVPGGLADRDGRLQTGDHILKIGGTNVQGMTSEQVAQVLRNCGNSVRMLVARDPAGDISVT

MPP7, Q5T2T1 = biological target: T5, MPP7, Q5T2T1
T5 sequence (Q5T2T1 134-230, limits assumed, looked up): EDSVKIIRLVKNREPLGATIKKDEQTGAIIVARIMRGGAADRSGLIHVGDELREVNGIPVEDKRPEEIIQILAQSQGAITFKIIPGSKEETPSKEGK

GRIP1_3, Q9Y3R0 = biological target: T6, GRIP1_3, Q9Y3R0
T6 sequence (Q9Y3R0 247-346, limits assumed, looked up): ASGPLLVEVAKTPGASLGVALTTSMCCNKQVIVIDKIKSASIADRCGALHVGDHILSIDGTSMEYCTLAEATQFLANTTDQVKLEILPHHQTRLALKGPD

ARHGAP21, Q5T5U3 = biological target: T7, ARHGAP21, Q5T5U3
T7 sequence (Q5T5U3 45-169, limits assumed, looked up): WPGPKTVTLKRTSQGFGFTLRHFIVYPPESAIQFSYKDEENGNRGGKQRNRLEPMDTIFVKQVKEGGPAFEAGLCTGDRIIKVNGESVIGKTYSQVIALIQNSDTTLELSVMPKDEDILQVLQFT

NHERF4_2, Q86UT5 = biological target: NHERF4_2, Q86UT5
Chain of NHERF4_2, Q86UT5 (Q86UT5 220-308): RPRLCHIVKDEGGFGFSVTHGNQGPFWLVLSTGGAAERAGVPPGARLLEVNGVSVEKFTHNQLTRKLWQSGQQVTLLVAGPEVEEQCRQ

GRIP1_4, Q9Y3R0 = biological target: T8, GRIP1_4, Q9Y3R0
T8 sequence (Q9Y3R0 467-571, limits assumed, looked up): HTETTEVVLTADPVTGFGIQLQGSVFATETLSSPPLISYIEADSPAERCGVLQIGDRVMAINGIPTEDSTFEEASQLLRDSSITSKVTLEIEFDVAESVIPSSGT

GIPC2, Q8TF65 = biological target: GIPC2, Q8TF65
Chain of GIPC2, Q8TF65 (Q8TF65 112-203): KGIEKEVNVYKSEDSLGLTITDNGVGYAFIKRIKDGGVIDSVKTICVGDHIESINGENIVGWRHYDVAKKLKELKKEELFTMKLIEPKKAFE

FRMPD4, Q14CM0 = biological target: FRMPD4, Q14CM0
Chain of FRMPD4, Q14CM0 (Q14CM0 67-160): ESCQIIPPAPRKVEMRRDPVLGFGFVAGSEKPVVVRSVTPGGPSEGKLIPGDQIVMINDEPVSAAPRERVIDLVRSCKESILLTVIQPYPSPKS

LIN7B, Q9HAP6 = biological target: T9, LIN7B, Q9HAP6
T9 sequence (Q9HAP6 88-185, limits assumed, looked up): T2 sequence (Q9NUP9 88-185, limits assumed, looked up) with S2A, E13D, I35V, I40V, H65Q, K79S, K89R, S96A

DFNB31_2, Q9P202 = biological target: T10, DFNB31_2, Q9P202
T10 sequence (Q9P202 274-371, limits assumed, looked up): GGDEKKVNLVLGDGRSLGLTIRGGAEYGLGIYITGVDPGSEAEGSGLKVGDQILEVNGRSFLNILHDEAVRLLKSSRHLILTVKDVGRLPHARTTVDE

GORASP1, Q9BQQ3 = biological target: GORASP1, Q9BQQ3
Chain of GORASP1, Q9BQQ3 (Q9BQQ3 1-208): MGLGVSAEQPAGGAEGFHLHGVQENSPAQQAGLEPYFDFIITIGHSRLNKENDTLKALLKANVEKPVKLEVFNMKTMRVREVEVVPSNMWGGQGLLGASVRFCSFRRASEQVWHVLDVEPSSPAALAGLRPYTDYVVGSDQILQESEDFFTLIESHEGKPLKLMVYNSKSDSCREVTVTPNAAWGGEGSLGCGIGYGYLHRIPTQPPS

DLG4_1, P78352 = biological target: DLG4_1, P78352
Chain of DLG4_1, P78352 (P78352 62-152): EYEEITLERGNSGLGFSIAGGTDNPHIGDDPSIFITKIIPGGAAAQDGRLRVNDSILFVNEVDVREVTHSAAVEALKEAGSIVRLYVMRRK

LNX1_1, Q8TBB1 = biological target: LNX1_1, Q8TBB1
Chain of LNX1_1, Q8TBB1 (Q8TBB1 261-371): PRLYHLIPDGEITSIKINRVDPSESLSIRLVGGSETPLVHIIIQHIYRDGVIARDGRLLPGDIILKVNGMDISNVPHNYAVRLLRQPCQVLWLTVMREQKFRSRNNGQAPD

PDZRN3_1, Q9UPQ7 = biological target: T11, PDZRN3_1, Q9UPQ7
T11 sequence (Q9UPQ7 244-349, limits assumed, looked up): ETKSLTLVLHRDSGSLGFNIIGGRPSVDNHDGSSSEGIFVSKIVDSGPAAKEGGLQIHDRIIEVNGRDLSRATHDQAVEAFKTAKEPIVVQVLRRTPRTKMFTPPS

[1] = plain residues with an end cap or a label only (N-terminal biotin on a linker: ado-ado)
[2] = plain residues with an end cap or a label only (N-terminal biotin on a linker: (peg)3)

B1: SLC34A1, Q06495;Q06495-1 (peptide)
chain: LPAHHNATRL
APBA1_1, Q02410; [1]
  pKd: below the threshold
GRID2IP_1, A4D2P6; [1]
  pKd: below the threshold
FRMPD3, Q5JV73; [1]
  pKd: below the threshold
GORASP2, Q9H8Y8; [1]
  pKd: below the threshold
LIN7C, Q9NUP9; [1]
  pKd: below the threshold
MAGI2_3, Q86UL8; [1]
  pKd: below the threshold
DLG3_2, Q92796; [1]
  pKd: below the threshold
HTRA3, P83110; [1]
  pKd: below the threshold
MAGI2_4, Q86UL8; [1]
  pKd: below the threshold
CASK, O14936; [1]
  pKd: below the threshold
GRIP2_5, Q9C0E4; [1]
  pKd: below the threshold
Inadl_2, Q8NI35; [1]
  pKd: below the threshold
MPP7, Q5T2T1; [1]
  pKd: below the threshold
GRIP1_3, Q9Y3R0; [1]
  pKd: below the threshold
ARHGAP21, Q5T5U3; [1]
  pKd: 3.99
NHERF4_2, Q86UT5; [1]
  pKd: below the threshold
GRIP1_4, Q9Y3R0; [1]
  pKd: below the threshold
GIPC2, Q8TF65; [1]
  pKd: below the threshold
FRMPD4, Q14CM0; [1]
  pKd: 4.31
LIN7B, Q9HAP6; [1]
  pKd: below the threshold
DFNB31_2, Q9P202; [1]
  pKd: below the threshold
GORASP1, Q9BQQ3; [1]
  pKd: below the threshold

B2: CES3, Q6UWW8 (peptide)
chain: QKNRKAQEDL
APBA1_1, Q02410; [1]
  pKd: below the threshold
GRID2IP_1, A4D2P6; [1]
  pKd: below the threshold
FRMPD3, Q5JV73; [1]
  pKd: below the threshold
DLG4_1, P78352; [1]
  pKd: below the threshold
GORASP2, Q9H8Y8; [1]
  pKd: below the threshold
LIN7C, Q9NUP9; [1]
  pKd: below the threshold
MAGI2_3, Q86UL8; [1]
  pKd: 3.83
DLG3_2, Q92796; [1]
  pKd: 4.21
HTRA3, P83110; [1]
  pKd: below the threshold
LNX1_1, Q8TBB1; [1]
  pKd: below the threshold
MAGI2_4, Q86UL8; [1]
  pKd: below the threshold
CASK, O14936; [1]
  pKd: below the threshold
GRIP2_5, Q9C0E4; [1]
  pKd: below the threshold
Inadl_2, Q8NI35; [1]
  pKd: below the threshold
MPP7, Q5T2T1; [1]
  pKd: 3.61
GRIP1_3, Q9Y3R0; [1]
  pKd: below the threshold
ARHGAP21, Q5T5U3; [1]
  pKd: below the threshold
PDZRN3_1, Q9UPQ7; [1]
  pKd: below the threshold
NHERF4_2, Q86UT5; [1]
  pKd: below the threshold
GRIP1_4, Q9Y3R0; [1]
  pKd: below the threshold
GIPC2, Q8TF65; [1]
  pKd: below the threshold
FRMPD4, Q14CM0; [1]
  pKd: below the threshold
LIN7B, Q9HAP6; [1]
  pKd: 3.78
DFNB31_2, Q9P202; [1]
  pKd: below the threshold
GORASP1, Q9BQQ3; [1]
  pKd: below the threshold

B3: SARS-CoV-E, P59637 (peptide)
chain: NLNSSEGVPDLLV
APBA1_1, Q02410; [2]
  pKd: below the threshold
GRID2IP_1, A4D2P6; [2]
  pKd: below the threshold
FRMPD3, Q5JV73; [2]
  pKd: below the threshold
DLG4_1, P78352; [2]
  pKd: below the threshold
GORASP2, Q9H8Y8; [2]
  pKd: below the threshold
LIN7C, Q9NUP9; [2]
  pKd: below the threshold
MAGI2_3, Q86UL8; [2]
  pKd: below the threshold
DLG3_2, Q92796; [2]
  pKd: below the threshold
HTRA3, P83110; [2]
  pKd: below the threshold
LNX1_1, Q8TBB1; [2]
  pKd: below the threshold
MAGI2_4, Q86UL8; [2]
  pKd: below the threshold
CASK, O14936; [2]
  pKd: below the threshold
GRIP2_5, Q9C0E4; [2]
  pKd: below the threshold
Inadl_2, Q8NI35; [2]
  pKd: below the threshold
MPP7, Q5T2T1; [2]
  pKd: below the threshold
GRIP1_3, Q9Y3R0; [2]
  pKd: below the threshold
ARHGAP21, Q5T5U3; [2]
  pKd: 3.88
PDZRN3_1, Q9UPQ7; [2]
  pKd: below the threshold
NHERF4_2, Q86UT5; [2]
  pKd: below the threshold
GRIP1_4, Q9Y3R0; [2]
  pKd: below the threshold
GIPC2, Q8TF65; [2]
  pKd: below the threshold
FRMPD4, Q14CM0; [2]
  pKd: below the threshold
LIN7B, Q9HAP6; [2]
  pKd: below the threshold
DFNB31_2, Q9P202; [2]
  pKd: below the threshold
GORASP1, Q9BQQ3; [2]
  pKd: below the threshold
